Data set [1] has as its target T1, EWS-FLI1 (UniProt F1JVV7).
T1 chain: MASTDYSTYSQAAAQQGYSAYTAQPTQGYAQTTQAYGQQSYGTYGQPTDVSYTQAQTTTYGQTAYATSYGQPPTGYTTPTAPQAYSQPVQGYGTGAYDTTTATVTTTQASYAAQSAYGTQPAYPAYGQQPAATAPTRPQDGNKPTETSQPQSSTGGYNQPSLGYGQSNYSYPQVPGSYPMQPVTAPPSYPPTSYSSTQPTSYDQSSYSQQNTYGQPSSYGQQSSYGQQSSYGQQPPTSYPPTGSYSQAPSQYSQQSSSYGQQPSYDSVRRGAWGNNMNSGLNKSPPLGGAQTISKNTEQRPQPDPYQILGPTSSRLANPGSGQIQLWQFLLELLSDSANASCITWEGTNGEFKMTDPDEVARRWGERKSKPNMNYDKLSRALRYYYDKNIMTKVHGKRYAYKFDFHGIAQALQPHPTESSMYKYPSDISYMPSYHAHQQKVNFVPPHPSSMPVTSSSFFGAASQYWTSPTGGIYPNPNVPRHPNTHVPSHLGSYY
Description: competition; 30 nM EWS-FLI1, competes with 32P HDV RNA (N1?); EMSA: 25 mM HEPES pH 7.4, 80 mM NaCl, 2 mM MgCl2, 2 mM DTT, Superase In, 5 pmol 32P-RNA, 10 min room temperature, 6% native PAGE 0.5x TBE; AFM: 25 mM HEPES pH 7.4, 2 mM MgCl2, 1 mM TCEP, 25 C, 1 min. The settings on record: protein: recombinant; blunt. Background: Mobility shift assays separate free from complexed probe on a gel.

The target of data set [2] is T1, EWS-FLI1. Described as above. The settings on record: protein: recombinant; blunt.

Data on two molecules can be found in PMC4333382, “RNA helicase A activity is inhibited by oncogenic transcription factor EWS-FLI1” (Nucleic Acids Research, 2015).

B1: mut ets-DNA (GGAA to GCTA) (dsDNA)
DNA 1: ATGTAGACCGCTAGTAACTA
DNA 2: TAGTTACTAGCGGTCTACAT
In the case of B1, the binding signal in the data set with EWS-FLI1 [1] was 30 % of wild-type efficiency at displacing RNA.

B2: wt ets-DNA (dsDNA)
DNA 1: ATGTAGACCGGAAGTAACTA
DNA 2: TAGTTACTTCCGGTCTACAT
As to B2, in the data set with EWS-FLI1 [2], the binding result is reported as “binds”.
